The source of these data is patent publication US20120021993A1 (AJOU UNIVERSITY INDUSTRY ACADEMIC COOPERATION FOUNDATION, published 2012).

Assay [1] deals with T1, DcR1 (UniProt O14798 26-221, limits assumed).
T1 sequence (looked up): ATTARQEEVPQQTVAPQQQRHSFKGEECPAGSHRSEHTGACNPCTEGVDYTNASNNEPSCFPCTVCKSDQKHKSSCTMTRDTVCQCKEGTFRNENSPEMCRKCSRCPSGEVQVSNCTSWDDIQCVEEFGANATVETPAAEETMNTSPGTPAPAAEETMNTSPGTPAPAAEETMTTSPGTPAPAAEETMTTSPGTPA
Put plainly: yeast display, flow cytometry MFI [panel KD413]. (In general: In flow cytometry, cells or beads pass a laser one at a time.)

The target of assay [2] is T2, DcR2 (UniProt Q9UBN6 56-211, limits assumed).
T2 sequence (looked up): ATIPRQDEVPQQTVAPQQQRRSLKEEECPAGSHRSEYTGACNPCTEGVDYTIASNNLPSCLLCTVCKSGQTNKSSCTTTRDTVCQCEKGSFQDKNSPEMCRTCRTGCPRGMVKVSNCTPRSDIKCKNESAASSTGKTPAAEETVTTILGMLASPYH
The assay can be described thus: yeast display, flow cytometry MFI [panel KD413].

Assay [3] deals with T1, DcR1. Put plainly: yeast display, flow cytometry MFI [panel KD415].
Assay [4] concerns the target T2, DcR2. Put plainly: yeast display, flow cytometry MFI [panel KD415].
For assay [5], the target named is T1, DcR1. Put plainly: yeast display, flow cytometry MFI [panel KD548].
The target in assay [6] is T2, DcR2. Put plainly: yeast display, flow cytometry MFI [panel KD548].
Assay [7] has as its target T3, human-derived cell death receptor 4, extracellular domain (amino acid residues 1-216), 6xHis tag (human, UniProt O00220 24-239).
T3 construct: extracellular domain; Expressed in E. coli; biotinylated for sorting and flow cytometry; residues 1-216; also called DR4; TRAIL-receptor 1
Put plainly: affinity ELISA, target coated on the plate. The protocol:
(§1) In order to measure the affinity and cross reactivity of the anti-DR4, -DR5 and -TNFα protein scaffold variants based on the Kringle domain structure to the target molecules, an enzyme-linked immunosorbent assay (ELISA) was performed. The target molecules DR4, DR5, TNFα and DcR1, DcR2 were attached to a 96 well EIA/RIA plate (COSTARCorning In., USA) by its reaction at 37° C. for 1 hour, and washed three times with 0.1% PBST (0.1% Tween20, pH 7.4, 137 mM NaCl, 10 mM Phosphate, 2.7 mM KCl, SIGMA-ALDRICH Co., USA) for 10 minutes. The target molecules were attached for 1 hour to a 96 well EIA/RIA plate in 1% PBSB (1% BSA, pH 7.4, 137 mM NaCl, 10 mM Phosphate, 2.7 mM KCl, SIGMA-ALDRICH Co., USA), and then washed three times with 0.1% PBST (0.1% Tween 20, pH 7.4, 137 mM NaCl, 10 mM Phosphate, 2.7 mM KCl, SIGMA-ALDRICH Co., USA) for 10 minutes. Then, the anti-DR4, -DR5 and -TNFα Kringle domain variants were bound, and washed three times with 0.1% PBST for 10 minutes. The anti-DR4, -DR5 and -TNFα Kringle domain variants were primarily bound to mouse-derived anti-c-myc 9e10 mAb (Ig Therapy, Korea), and secondarily bound to alkaline phosphatase (AP)-conjugated anti-mouse mAb (Sigma). Each of the Kringle domain variants was reacted with […] (pNPP, Sigma-aldrich Co., USA) and quantified at an absorbance of 405 nm.
(§2) In order to analyze the affinities of the Fc-fused anti-DR4, -DR5 and -TNFα Kringle domains to target molecules, the affinities of the Fc-fused anti-DR4, -DR5 and -TNFα Kringle domains to the target molecules were analyzed using ELISA, as described in Example 8.
A general note: In an ELISA, binding on a coated surface is turned into a signal by an enzyme label.

Assay [8] addresses cell surface DR4 (human, UniProt O00220 24-468). The assay can be described thus: cell-based or functional assay.
Assay [9] addresses T3, human-derived cell death receptor 4, …. The assay can be described thus: ELISA, coated target, A405.
For assay [10] the target is unchanged. The assay can be described thus: ELISA, coated target, single binder concentration not given, A405. The method, then: as §1
In assay [11] the target is T4, TNFα, extracellular domain (amino acid residue 1-157), 6xHis tag (human, UniProt P01375 57-233).
T4 construct: extracellular domain; Expressed in E. coli; The printed residues 1-157 seem to count on the soluble form, not on the precursor; also called human TNFα; tumor necrosis factor alpha
T4 sequence (P01375 other isoform, or with tags, fused parts or gaps limits assumed): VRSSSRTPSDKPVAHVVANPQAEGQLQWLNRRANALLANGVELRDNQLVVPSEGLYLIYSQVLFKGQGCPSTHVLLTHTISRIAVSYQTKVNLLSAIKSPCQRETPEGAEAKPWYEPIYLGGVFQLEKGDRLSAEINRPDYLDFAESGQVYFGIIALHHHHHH
The assay can be described thus: ELISA, coated target, A405. The method, then:
as §1

For assay [12], the target named is T5, human-derived cell death receptor 5, extracellular domain (amino acid residues 1-130), 6xHis tag (human, UniProt O14763 56-210).
T5 construct: extracellular domain; Expressed in E. coli; biotinylated for sorting and flow cytometry; also called DR5; TRAIL-receptor 2
Put plainly: affinity ELISA, target coated on the plate. The method, then: as §1, §2

Assay [13] addresses cell surface DR5 (human, UniProt O14763 56-440). The assay can be described thus: cell-based or functional assay.
In assay [14] the target is T3, human-derived cell death receptor 4, …. The assay can be described thus: ELISA, homo-dimer against monomer.
Assay [15] shares this target. Put plainly: ELISA, target coated on the plate.

Residue numbers refer to the chain shown, from its start.

B1: KD413L56 (designed binder)
chain: CMHCSGENYDGKISKTMSGLECQAWDSQSPHAHGYIPSKFPNKNLKKNYCRNPDPRAGPWCFTHGNRNRYELCDIPRC
Consider B1, for which the binding result in assay [1] and in [2] was “no binding” in each case.

B2: L5 (KD415) (designed binder)
chain: B1 chain with R56Q, A57D, G58Q, H64T, G65D, N66P, R67N, N68K, Y70W
notes: also called KD415L5
For the molecule B2, the binding result in [3] and in assay [4] was “no binding” throughout.

B3: L5 (KD413) (designed binder)
chain: B1 chain with H64T, G65D, N66P, R67N, N68K, Y70W
notes: also called KD413L5
Turning to B3, the binding result in [1] and in assay [2] was “no binding” throughout.

B4: KD415L567 (designed binder)
chain: CMHCSGENYDGKISKTMSGLECQAWDSQSPHAHGYIPSKFPNKNLKKNYCRNPDPQDQPWCFTNRHQHKNELCNQPRC
For B4, the binding result in assay [3] and in assay [4] was “no binding” in each case.

B5: KD548L56 (designed binder)
chain: B1 chain with P55N, R56K, A57H, G58E, N66H, N68D, R69K, Y70H
B5: the binding result in [5] and in assay [6] was “no binding” throughout.

B6: L567 (KD548) (designed binder)
chain: CMHCSGENYDGKISKTMSGLECQAWDSQSPHAHGYIPSKFPNKNLKKNYCRNPDNKHEPWCFTHGHRDKHELCHEPRC
notes: also called KD548L567; not shown: Aga2p display anchor, linker and c-myc tag of the pCTCON yeast display vector
As to B6, the binding result in assay [5] and in assay [6] was “no binding” each time.

B7: L56 (KD415) (designed binder)
chain: B4 chain with N74D, Q75I
notes: also called KD415L56
For B7, the binding result in [3] and in assay [4] was “no binding” throughout.

B8: L567 (KD413) (designed binder)
chain: B1 chain with D74N, I75Q
notes: also called KD413L567
In the case of B8, the binding result in [1] and in assay [2] was “no binding” in each case.

B9: KD413-Fc (Fc fusion)
chain: CAKAEGTGYDGHEHKTHKGIRCQNWYKSKPHYHGHQFRDGDKIKNKKNYCRNPDPRAGPWCFTHGNRNRYELCNQPRC
notes: Disulfide-linked dimer from Pichia pastoris; also called Fc-fused anti-DR4 Kringle domain KD413; not shown: Fc domain region from a hinge of human immunoglobulin G1
In [7], B9 registered an affinity of 60 nM. For the same molecule, the “EC50 (a concentration of protein causing a 50% cell death), Jurkat, MTT assay” value in [8] stood at 60 nM.

B10: KD413-KD415 hetero-dimer (designed binder, not shown: small tags and cut ends)
chain: CAKAEGTGYDGHEHKTHKGIRCQNWYKSKPHYHGHQFRDGDKIKNKKNYCRNPDPRAGPWCFTHGNRNRYELCNQPRCGGGGSGGGGSGGGGSGGGGSCTRSKGDEYDGHKHKTNRGLRCQHWPGTKPHFHGDKIKDRHGFRLKKNYCRNPDPQDQPWCFTNRHQHKNELCNQPRC
Take B10: in [9], the EC50 (read off the curve) (usually the concentration needed to bring the measured effect to its halfway point) is ~30 nM.

B11: L1234 (KD548) (designed binder)
chain: CHQTQGPKYDGNKDKTHKGHKCQSWTKNRPHHHGNKIENEDENRFQKNYCRNPDRELRPWCFTTDPNKRWELCDIPRC
notes: also called KD548L1234
B11: the binding result in [5] and in assay [6] was “no binding” each time.

B12: KDT01 (designed binder)
chain: CYEDKGPQYDGDEYGTHKGHRCQNWDENRPHPHGIGHQHKHQVKDGKNYCRNPDDETEPWCFTHKDKYGHELCNRPRC
notes: Soluble monomer from Pichia pastoris; also called KRT01; not shown: C-terminal myc tag-6xHis tag of pPICZaA
On to B12, for which the binding result in [10] is “no binding”. Moreover, the “EC50 (read off the curve)” value in [11] is ~2000 nM.

B13: KD548-Fc (Fc fusion)
chain: CHQTQGPKYDGNKDKTHKGHKCQSWTKNRPHHHGNKIENEDENRFQKNYCRNPDNKHEPWCFTHGHRDKHELCHEPRC
notes: Disulfide-linked dimer from Pichia pastoris; also called Fc-fused anti-DR5 Kringle domain KD548; not shown: Fc domain region from a hinge of human immunoglobulin G1
B13 showed an affinity in assay [12] of 58 nM. In addition, in [13], the “EC50 (a concentration of protein causing a 50% cell death), HL60, MTT assay” value is 220 nM.

B14: anti-DR4 KD415 homo-dimer (designed binder)
chain: CTRSKGDEYDGHKHKTNRGLRCQHWPGTKPHFHGDKIKDRHGFRLKKNYCRNPDPQDQPWCFTNRHQHKNELCNQPRCGGGGSGGGGSGGGGSGGGGSCTRSKGDEYDGHKHKTNRGLRCQHWPGTKPHFHGDKIKDRHGFRLKKNYCRNPDPQDQPWCFTNRHQHKNELCNQPRC
As to B14, the “fold increase of affinity against the monomer” value in assay [14] is ~10 fold. In assay [15], this molecule showed an affinity value of 87 nM.

B15: L1234 (KD413) (designed binder)
chain: CAKAEGTGYDGHEHKTHKGIRCQNWYKSKPHYHGHQFRDGDKIKNKKNYCRNPDRELRPWCFTTDPNKRWELCDIPRC
notes: also called KD413L1234
In the case of B15, the binding result in [1] and in assay [2] was “no binding” in each case.

B16: KD415-Fc (Fc fusion)
chain: CTRSKGDEYDGHKHKTNRGLRCQHWPGTKPHFHGDKIKDRHGFRLKKNYCRNPDPQDQPWCFTNRHQHKNELCNQPRC
notes: Disulfide-linked dimer from Pichia pastoris; also called Fc-fused anti-DR4 Kringle domain KD415; not shown: Fc domain region from a hinge of human immunoglobulin G1
As to B16, in assay [7], the affinity is 53 nM. In assay [8], the “EC50 (a concentration of protein causing a 50% cell death), HL60, MTT assay” value was 60 nM and the “EC50 (a concentration of protein causing a 50% cell death), Jurkat, MTT assay” value was found to be 80 nM.

B17: KDT02 (designed binder)
chain: CAQDGGPGYDGDKHGTHGGHECQDWTKDGPHIHGFRDQFRDEDQHGKNYCRNPDSQHGPWCFTNEDEHRNELCHEPRC
notes: Soluble monomer from Pichia pastoris; also called KRT02; not shown: C-terminal myc tag-6xHis tag of pPICZaA
Consider B17, for which, in [10], the binding result is listed as “no binding”. Besides, the concentration for a half-maximal effect (EC50 (read off the curve)) in [11] was ~2000 nM.

B18: KD506-Fc (Fc fusion)
chain: CPEDRGHEYDGDGDKTNRGHGCQYWDQNKPHHHGHRDKDKFKHRIKKNYCRNPDYETGPWCFTNRYRNKNELCHEPRC
notes: Disulfide-linked dimer from Pichia pastoris; also called Fc-fused anti-DR5 Kringle domain KD506; not shown: Fc domain region from a hinge of human immunoglobulin G1
Molecule B18 had an affinity in assay [12] of 43 nM. In addition, in assay [13], the “EC50 (a concentration of protein causing a 50% cell death), HL60, MTT assay” value was 230 nM and the “EC50 (a concentration of protein causing a 50% cell death), Jurkat, MTT assay” value is 80 nM.

B19: anti-DR4 KD413 homo-dimer (designed binder)
chain: CAKAEGTGYDGHEHKTHKGIRCQNWYKSKPHYHGHQFRDGDKIKNKKNYCRNPDPRAGPWCFTHGNRNRYELCNQPRCGGGGSGGGGSGGGGSGGGGSCAKAEGTGYDGHEHKTHKGIRCQNWYKSKPHYHGHQFRDGDKIKNKKNYCRNPDPRAGPWCFTHGNRNRYELCNQPRC
On to B19, for which, in assay [14], the “fold increase of affinity against the monomer” value was ~10 fold. Besides, the affinity value in assay [15] was 43 nM.
